In US20070036810A1, “Cyclic amp response element activator proteins and uses related thereto” (priority 2003, published 2007):
Like-named read-outs stand apart in the source and are kept apart here.

Legend:
Interleukin-8 promoter = test: IL-8 promoter luciferase reporter co-transfection assay with the CREAP gene family; assay type: cell-based, human; settings: cotransfection, relative to empty pCMV-SPORT6 vector
Description: (§1) The entire amino acid sequence for CREAP1 was used in a BLASTP search of a public NCBI database. Initially two public domain cDNAs (XM—117201 and FLJ00364) were identified that have significant homology to the CREAP1 coding region. The nucleotide sequence of XM—117201 was used in a BLASTN search (Altschul S. F. et al., Nucleic Acids Res. 25:3389-3402 (1997)) of a proprietary cDNA library EST database and 4 clones were identified that represent XM—117201 public sequence. All 4 clones were functionally tested upon co-transfection with the CRE-Luc and IL-8p-Luc reporters initially found to be induced by CREAP using methods similar to those disclosed above. Briefly, trypsinized HeLa cells are resuspended in complete growth media at 6×10^4 cells/ml and distributed into white 96-well plates (Costar) in the volume of 100 μl per well. Cells are left overnight in a tissue culture incubator at 37° C. and 5% CO2. pGL3B-IL-8p-Luc reporter plasmid or CRE-Luc reporter (BD Biosciences) as well as tested cDNAs are resuspended in OptiMEM I low serum media (GIBCO BRL) at 25 ng/ml. The reporter plasmids and cDNAs are then distributed into 96-well clean PCR plates (ABGene) at 4 μl/well and 3 μl/well respectively. […]
The activity of firefly and Renilla luciferase is measured using the DualGlo Luciferase Assay System (Promega) following the protocol supplied by the manufacturer. Briefly, 115 μl of freshly reconstituted luciferase reagent is added to each well of the 96-well tissue culture plates with a Multidrop 384 and, after 15 minutes incubation, luminescence is read on a LUMINOSKAN Ascent Luminometer (Thermo Labsystems) with a 400 msec integration time. Subsequently, 115 μl of Stop-and-Glo reagent is added to each well of the 96-well tissue culture and, after 15 minutes incubation, luminescence is read on a LUMINOSKAN Ascent Luminometer with a 200 msec integration time. The activity of each tested cDNA is measured as a ratio of the corresponding firefly and Renilla luciferase activities. […]

[1] = test system: cAMP responsive genes in HeLa cells; settings: vs pCMV-Sport6 vector
Description: HeLa cells are transfected with CREAP1 as described herein or expression constructs containing relA, (Ruben S M et al., Science 1991 Mar. 22;251(5000):1490-3), MAP3K11 (Hartkamp, J. et al., (1999). Cancer Res. 59, 2195-2202) or ANKRD3 (Muto, A., et al., (2002) J. Biol. Chem. 277, 31871-31876.) using Targefect F1 transfection reagent (Targeting Systems, Santee, Calif.) according to the protocol supplied with the product. Briefly, HeLa cells are used for the transfection at 70-80% of confluency in T75 tissue culture flasks (Falcon). Transfection mixes are prepared as follows: to 50 ml conical tube (Falcon) with 8 ml of Opti-MEM I 20 μg of selected plasmid DNA is added and mixed by flicking the tube. Two transfections are set up with pCMV-Sport6 empty vector. Targefect F-1 stock solution is vortexed at full speed for 20 seconds and 40 μl are added to each tube, mixed again by flicking the tube and incubated at room temperature for 30 minutes to allow formation of transfection complexes. HeLa cells are washed twice with 20 ml of Opti-MEM I medium and […] of each transfection complex are added per 1 T75 flask. After 4 hrs of incubation at 37° C. 8 ml of growth media with serum is added to each flask. The media is replaced the next day. 56 hours post-transfection the media is replaced again and to one of the flasks transfected with pCMV-Sport6 plasmid TNFα (R&D Systems) is added at 50 ng/ml and the incubation is continued at 37° C. for the next 16 hours. 72 hours post-transfection cells are collected in 10 ml of TRIzol reagent (Gibco BRL) and frozen at −80° C. Total RNA is isolated according to the protocol supplied with the TRIzol reagent. Synthesis labeling of double-stranded cDNA probes, Affymetrix Gene-Chip hybridization and data analysis are done according to conventional methods (see also Eberwine, J., et al., J. Neurosci. 21, 8310-8314 and Hakak, Y., et al., (2001) Proc. Natl. Acad. Sci. U.S.A. 98, 4746-4751).
To determine if CREAP1 regulates expression of authentic CREB targets, cellular gene expression was measured using DNA microarrays after overexpression of CREAP1. Briefly, HeLa cells were transiently transfected with pCMV-Sport6, CREAP1 using Targefect F1 reagent (Targeting Systems). One half of pCMV-Sport6 transfected cells were left untreated and was used as a negative control. Total RNA isolation, labeled probe preparation and DNA microchip hybridization protocol were performed as described above.

[2] = test system: minimal promoter linked to multiple copies of CRE; test: CRE-Luc reporter co-transfection assay with the CREAP gene family; assay type: cell-based; settings: cotransfection, relative to empty pCMV-SPORT6 vector
Description: as §1, with “respectively. Mixture containing Fugene 6 reagent (Roche Applied Bioscience) at 1.5 μl per transfection and pRL-SV40 (Promega) plasmid 20 ng per transfection is added in the volume of 10 μl per well of the 96-well PCR plate containing prediluted cDNAs.” for “respectively.”
The activity of firefly and Renilla luciferase is measured using the DualGlo Luciferase Assay System (Promega) following the protocol supplied by the manufacturer. Briefly, 115 μl of freshly reconstituted luciferase reagent is added to each well of the 96-well tissue culture plates with a Multidrop 384 and, after 15 minutes incubation, luminescence is read on a LUMINOSKAN Ascent Luminometer (Thermo Labsystems) with a 400 msec integration time. Subsequently, 115 μl of Stop-and-Glo reagent is added to each well of the 96-well tissue culture and, after 15 minutes incubation, luminescence is read on a LUMINOSKAN Ascent Luminometer with a 200 msec integration time. The activity of each tested cDNA is measured as a ratio of the corresponding firefly and Renilla luciferase activities.
To investigate this, the ability of CREAP2 and CREAP3 to activate gene expression driven by the IL-8 promoter and a CRE-dependent promoter was tested in co-transfection assays as disclosed above. Briefly, the levels of expression of a luciferase reporter driven by either the IL-8 promoter or a minimal promoter linked to 4 copies of CRE were determined after cotransfection with either an empty pCMV-SPORT6 expression vector or with the same vector carrying a cDNA for CREAP1, CREAP2 or CREAP3. […]

B1: CREAP1: human CRE activating protein 1, 650 amino acids, SEQ ID NO 2; expressed from pCMVSPORT-CREAP1 (protein)
chain: MATSNNPRKFSEKIALHNQKQAEETAAFEEVMKDLSLTRAARLQLQKSQYLQLGPSRGQYYGGSLPNVNQIGSGTMDLPFQPSGFLGEALAAAPVSLTPFQSSGLDTSRTTRHHGLVDRVYRERGRLGSPHRRPLSVDKHGRQADSCPYGTMYLSPPADTSWRRTNSDSALHQSTMTPTQPESFSSGSQDVHQKRVLLLTVPGMEETTSEADKNLSKQAWDTKKTGSRPKSCEVPGINIFPSADQENTTALIPATHNTGGSLPDLTNIHFPSPLPTPLDPEEPTFPALSSSSSTGNLAANLTHLGIGGAGQGMSTPGSSPQHRPAGVSPLSLSTEARRQQASPTLSPLSPITQAVAMDALSLEQQLPYAFFTQAGSQQPPPQPQPPPPPPPASQQPPPPPPPQAPVRLPPGGPLLPSASLTRGPQPPPLAVTVPSSLPQSPPENPGQPSMGIDIASAPALQQYRTSAGSPANQSPTSPVSNQGFSPGSSPQHTSTLGSVFGDAYYEQQMAARQANALSHQLEQFNMMENAISSSSLYSPGSTLNYSQAAMMGLTGSHGSLPDSQQLGYASHSGIPNIILTVTGESPPSLSKELTSSLAGVGDVSFDSDSQFPLDELKIDPLTLDGLHMLNDPDMVLADPATEDTFRMDRL
modifications: human
IL-8: level of expression of luciferase relative to empty vector (Interleukin-8 promoter): 175.8571 | Fold Activation ([1]; CAPL protein mRNA (38088_r_at)): 19 | Fold Activation ([1]; DKFZp566K192 mRNA (32242_at)): 32 | Fold Activation ([1]; Exodus-1 mRNA (40385_at)): 15 | Fold Activation ([1]; IL-8 mRNA (1369_s_at)): 2.5 | Fold Activation ([1]; KIAA0467 mRNA (41458_at)): 12 | Fold Activation ([1]; PEPCK mRNA (33702_f_at)): 32 | Fold Activation ([1]; TSHa mRNA (39352_at)): 57 | Fold Activation ([1]; amphiregulin mRNA (34898_at)): 19 | CRE: level of expression of luciferase relative to empty vector [2]: 28.6
